Test results published in patent publication EP1012281B1.

B1: charybdotoxin, P13487 23-59 (peptide)
peptide: QFTNVSCTTSKECWSVCQRLHNTSRGKCMNKKCRCYS
modifications: not checked

Tests used:
[1] = biological target: human lymph node derived calcium activated potassium channel polypeptide hKCa4, transiently expresse (human); assay: cell-based or functional assay
[2] = biological target: cloned hKCa4 (SEQ ID NO:3) (human); assay: cell-based or functional assay

Row | Molecule | Kd for block of KCa current, whole cell patch clamp [1] | IC50 as peptide blocker of the channel [2]
1 | iberiotoxin (from UniProt P24663 1-37) (peptide) | > 1000 nM | –
2 | kaliotoxin (from UniProt P24662 1-38) (peptide) | > 1000 nM | –
3 | apamin (from UniProt P01500 28-45) (peptide) | > 1000 nM | –
4 | scyllatoxin (from UniProt P16341 1-31) (peptide) | > 1000 nM | –
5 | B1 | – | 5 to 10 nM
